Assays:
[1] = molecular target: WIV1-CoV spike RBD (WIV1-CoV); assay: bead flow cytometry
[2] = molecular target: BtCoV BM48-31 spike RBD (BtCoV BM48-31); assay: bead flow cytometry

B1: mAb CR3022 (antibody, V domains shown)
VH: QMQLVQSGTEVKKPGESLKISCKGSGYGFITYWIGWVRQMPGKGLEWMGIIYPGDSETRYSPSFQGQVTISADKSINTAYLQWSSLKASDTAIYYCAGGSGISTPMDVWGQGTTVTVSS
VL: not shown
gMFI [1]: 22300
gMFI [2]: 72
